In general, stoichiometry N refers to the number of molecules, sites or subunits per partner or assembly.

The assay concerns the target Type 4 LDH (BL105A_0985), aromatic lactate dehydrogenase (ALDH) of B. longum ssp. longum 105-A (Bifidobacterium longum ssp. longum 105-A) (UniProt Q8G593). Kind of assay: SEC; native molecular mass of the purified recombinant enzyme estimated by size exclusion chromatography (Supplementary Fig. 7b); dimer of the 33.9 kDa chain.

Consider “Type 4 LDH (BL105A_0985), aromatic lactate dehydrogenase (ALDH) of B. longum ssp. longum 105-A (from UniProt Q8G593 1-545) (enzyme)”, for which the stoichiometry N is 2.

The values are drawn from article PMC8556157.
